Laboratory results as given in article PMC4072508, “Genome-Wide Prediction and Validation of Peptides That Bind Human Prosurvival Bcl-2 Proteins” (PLoS Computational Biology, 2014).

Molecular target: Bcl-xL, Q07817
Assay: peptide SPOT array, c-Myc-tagged receptor at 1 uM or 100 nM, anti-c-Myc-Cy3

Sequence of Bcl-xL, Q07817 (Q07817 1-209): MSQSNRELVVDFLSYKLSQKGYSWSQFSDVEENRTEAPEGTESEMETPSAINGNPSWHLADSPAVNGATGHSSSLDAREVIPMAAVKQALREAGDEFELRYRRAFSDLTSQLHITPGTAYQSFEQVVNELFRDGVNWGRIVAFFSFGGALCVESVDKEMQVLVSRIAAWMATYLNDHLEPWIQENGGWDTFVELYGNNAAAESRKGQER

Binder	SPOT signal as a fraction of Bim BH3's signal on the same receptor and array
EEQLEKLIKKLRKASEGLNSTLKDHI [CCDC76]	0.03
YKGHREIARYLLEQGAQVNRRSAKGN	1.44
FPDARDMVRYLGDFADTLGLRVQYNT [FOXRED2]	0.03
SQATGELADLIQQLSEKFGKNLNKDH [TRPC7]	0.03
ARELEEISERLEEASGATSAQIEMNK [MYH13]	0.02
ASKLKGAAVKLADFGLAIEVEGEQQA [CAMK2A]	0.03
DTIFHRAAVRLRDLGGAILRHARRQA [BRPF3]	0.9
GHDATEDARTILELARYFLKHGPKKI [XXXX]	0.11
AHGVRDVSKELVGLAEHAATRLRFTK [TMEM151A]	0.1
NKDGKSVSNRDRRLSDNCGGKVLSIT [KIAA0430]	0.22
NKQLRKETESLRKIALEAQKKAKVKI	0.5
LREVRESIRFLRQVGRDWVQRRREAL [CYP46A1]	0.8
KPRMSNTSFVIQHFADKVEYKCEGFL [MYO5C]	0.04
YEHLRQFCLELNGLAVKLQSECHPDT [MOBKL3]	0.03
AIKSQRMVQNLLSLARKICERVHRSP [ZBED4]	0.26
AYTMERSARQIMHTAMKYNLGLDLRT [GLUD2]	0.19
RLRHDEIITLLKNVGERVVLEVEYEL [GRIP2]	0.03
QAEADHLGKELQSVSAKLQAQVEENE [GOLGA6L1]	0.02
NKQLRKETESDRKIALEAQKKAKVKI	0.32

Binder	SPOT signal as a fraction of Bim BH3's signal on the same receptor and array
RYRHGAPAEQDRHLADMLTTKWATLQ	0.71
QEQLLTLASILREDGKVFDEKVYYTA [HEBP2]	0.03
YGRLRPRARSLSKALTAINWLTKKFL [MYO15A]	0.94
DLSSTFVSLALRKVLDWPLSARREKG [TTC31]	0.17
LVNIRKDTLRLVKCAEEVKSPGEEAS [RNF157]	0.03
SGEFREIGTVIDQIAETLWEQVFSKL [ATL2]	0.03
AERHKQEADDIVRVAKTANDTSTEAY [LAMC1]	0.02
GFANHDVVEVLRNALQVVHLTLVRRK [INADL]	0.18
LQETTLVANQLREAASRLKWTTNTGP [MAN2B1]	0.06
LAELQQRSDQLLDMSSTFNKTTQNLA [VAMP5]	0.02
YIEYLKSSDRLDEAAQRLATVVNDER [XAB2]	0.03
VIKQRRLPDQDSKLADRIQLSGRYYL [RAPGEF2]	1.24
YKGHREIARYDLEQGAQVNRRSAKGN	1.82
ILRHKDIIDDLVKSGHKIMTACSEEE [DST]	0.03
LARIRRRIKWLQDGSQSLFGRLHNDC [VWA3B]	0.56
HNQLTTVPERLSNCSRSLKNLILKNN [TLR7]	0.29
RYRHGAPAEQLRHLLDMLTTKWATLQ	0.97
NRQLANMVNNLKEISQEAREGTQGER [TRIM21]	0.03

Continued, values first:

SPOT signal as a fraction of Bim BH3's signal on the same receptor and array	Binder
1.11	HRTSNVLTLSDKRFANFSGGKITKDV [USP36]
0.87	KTRADSVANKLGSFSKTLGIKLKKNM [OTUD7A]
0.02	SAKLGKSSSLLTQTSEECNGILTEKM [ZNF396]
0.07	AKIIGNNVKKLQKFASTVKMWVFEET [GPD1L]
0.91	RGRTRGWVQTDARMSRRTRGPVERAA [C6orf223]
1.05	NEEGQQFALKDHRLGRTSFRNLKNKR [RIOK2]
0.06	IERMIHFGRELQAMSEQLRRDCGKNT [RANBP9]
0.02	YRDLPLAAVDLSTAGSQLLSNLDEDY [C15orf27]
0.02	TFETQEDAQKILQEAEKLNYKDKKLN [BOLL]
0.02	SRELEEISERLEEAGGATSAQIEMNK [MYH2]
0.65	AHKARALARLLRQTALAAFSDFKRLQ [FAM43B]
0.02	SSDVIAVCQSLRQMAEKCQQDPESCW [MMS19]
0.02	SCMATVIHNPDKALGDQFYKEAIEHC [DPF3]
0.02	LEKQNNSASDLHEISNEILRIIERTG [GPR112]
0.02	GQISDEVAERLMTIAYESGVNLFDTA [KCNAB1]
0.05	KSRLVQQSKADKELADELQERCQRPA [TRIM58]
0.08	LGRTGQVCLFDKRGADQHALDQEQRD [ACAP3]
0.31	NKQLRKETESLRKILLEAQKKAKVKI
